Measurements reported in patent US20230151111A1.
Where “and” joins values, the source holds several entries; their conditions need not be identical. Equal values may be shown once.

Columns and labels:
[1] = molecular target: human NT5E-Biotin (human) (UniProt P21589); test: ELISA, NT5E-biotin on streptavidin; antibody 0.333 ug/mL diluted 1:27
[2] = molecular target: human NT5E-Biotin (human) (UniProt P21589); test: ELISA, NT5E-biotin on streptavidin; antibody 0.333 ug/mL diluted 1:729
[3] = molecular target: human NT5E-Biotin (human) (UniProt P21589); test: ELISA, NT5E-biotin on streptavidin
[4] = molecular target: human NT5E-Biotin (human) (UniProt P21589); test: ELISA, NT5E-biotin on streptavidin; antibody 0.333 ug/mL diluted 1:81
[5] = molecular target: human NT5E(1-552)-his (human) (UniProt P21589); test: BLI (Fortebio), antibody on Protein A sensor, NT5E(1-552)-his 3.125-200 nM, 37 C
[6] = molecular target: human NT5E-Biotin (human) (UniProt P21589); test: ELISA, NT5E-biotin on streptavidin; antibody 0.333 ug/mL diluted 1:9
[7] = molecular target: human NT5E-Biotin (human) (UniProt P21589); test: ELISA, NT5E-biotin on streptavidin; antibody 0.333 ug/mL diluted 1:3
[8] = molecular target: human NT5E-Biotin (human) (UniProt P21589); test: ELISA, NT5E-biotin on streptavidin; antibody 0.333 ug/mL diluted 1:243
[9] = molecular target: human NT5E-Biotin (human) (UniProt P21589); test: ELISA, NT5E-biotin on streptavidin; antibody 0.333 ug/mL
PD-1-mFc (human) [10] = molecular target: PD-1-mFc (human) (UniProt Q15116); test: ELISA, PD-1-mFc coated; antibody 1 ug/mL diluted 1:3
[11] = molecular target: human PD-1-mFc-biotin (human) (UniProt Q15116); test: competitive ELISA, competitor coated PD-L1-mFc; antibody 5 ug/mL diluted 1:243
PD-1-mFc (human) [12] = molecular target: PD-1-mFc (human) (UniProt Q15116); test: ELISA, PD-1-mFc coated; antibody 1 ug/mL diluted 1:729
PD-1-mFc (human) [13] = molecular target: PD-1-mFc (human) (UniProt Q15116); test: ELISA, PD-1-mFc coated; antibody 1 ug/mL diluted 1:27
PD-1-mFc (human) [14] = molecular target: PD-1-mFc (human) (UniProt Q15116); test: ELISA, PD-1-mFc coated; antibody 1 ug/mL diluted 1:9
[15] = molecular target: human PD-1-mFc-biotin (human) (UniProt Q15116); test: competitive ELISA, competitor coated PD-L1-mFc; antibody 5 ug/mL diluted 1:3
[16] = molecular target: human PD-1-mFc-biotin (human) (UniProt Q15116); test: competitive ELISA, blocking of PD-1-mFc-biotin binding to coated PD-L1-mFc
[17] = molecular target: human PD-1-mFc-biotin (human) (UniProt Q15116); test: competitive ELISA, competitor coated PD-L1-mFc; antibody 5 ug/mL diluted 1:729
[18] = molecular target: human PD-1-mFc-biotin (human) (UniProt Q15116); test: competitive ELISA, competitor coated PD-L1-mFc; antibody 5 ug/mL diluted 1:81
PD-1-mFc (human) [19] = molecular target: PD-1-mFc (human) (UniProt Q15116); test: ELISA, PD-1-mFc coated; antibody 1 ug/mL diluted 1:243
PD-1-mFc (human) [20] = molecular target: PD-1-mFc (human) (UniProt Q15116); test: ELISA, PD-1-mFc coated; antibody 1 ug/mL diluted 1:81
[21] = molecular target: human PD-1-mFc-biotin (human) (UniProt Q15116); test: competitive ELISA, competitor coated PD-L1-mFc; antibody 5 ug/mL diluted 1:27
PD-1-mFc (human) [22] = molecular target: PD-1-mFc (human) (UniProt Q15116); test: ELISA, PD-1-mFc coated; antibody 1 ug/mL
[23] = molecular target: human PD-1-mFc-biotin (human) (UniProt Q15116); test: competitive ELISA, competitor coated PD-L1-mFc; antibody 5 ug/mL diluted 1:9
[24] = molecular target: human PD-1-mFc-biotin (human) (UniProt Q15116); test: competitive ELISA, competitor coated PD-L1-mFc; antibody 5 ug/mL

Sequence of human PD-1-mFc-biotin (human) (Q15116 other isoform, or with tags, fused parts or gaps limits assumed): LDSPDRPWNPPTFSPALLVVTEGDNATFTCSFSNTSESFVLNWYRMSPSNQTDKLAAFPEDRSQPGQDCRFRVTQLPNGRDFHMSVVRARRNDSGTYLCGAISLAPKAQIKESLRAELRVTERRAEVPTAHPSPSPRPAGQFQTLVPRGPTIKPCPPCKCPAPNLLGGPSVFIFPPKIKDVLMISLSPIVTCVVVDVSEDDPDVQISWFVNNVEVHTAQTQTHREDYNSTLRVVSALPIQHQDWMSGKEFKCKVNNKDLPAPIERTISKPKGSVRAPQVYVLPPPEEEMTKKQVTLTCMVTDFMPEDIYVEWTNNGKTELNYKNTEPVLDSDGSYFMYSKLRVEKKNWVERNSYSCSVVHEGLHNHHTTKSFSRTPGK
Sequence of PD-1-mFc (human) (Q15116 other isoform, or with tags, fused parts or gaps limits assumed): as above
Sequence of human NT5E-Biotin (human) (P21589 27-552 limits assumed, form in doubt): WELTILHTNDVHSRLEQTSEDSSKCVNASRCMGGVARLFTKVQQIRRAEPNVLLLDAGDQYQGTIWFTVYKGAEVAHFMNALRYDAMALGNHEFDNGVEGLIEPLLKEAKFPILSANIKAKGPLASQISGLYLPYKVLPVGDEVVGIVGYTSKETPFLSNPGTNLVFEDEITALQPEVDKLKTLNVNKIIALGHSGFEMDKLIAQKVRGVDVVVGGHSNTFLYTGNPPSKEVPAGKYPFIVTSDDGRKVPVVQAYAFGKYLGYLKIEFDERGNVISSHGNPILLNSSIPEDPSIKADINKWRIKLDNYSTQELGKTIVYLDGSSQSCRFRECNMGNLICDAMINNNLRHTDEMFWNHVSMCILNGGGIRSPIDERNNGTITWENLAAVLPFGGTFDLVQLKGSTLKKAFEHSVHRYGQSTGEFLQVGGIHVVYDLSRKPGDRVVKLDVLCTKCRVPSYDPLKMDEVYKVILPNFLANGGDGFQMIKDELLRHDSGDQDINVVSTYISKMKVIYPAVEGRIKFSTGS
Sequence of human NT5E(1-552)-his (human) (P21589 27-552 limits assumed): as the sequence (P21589 27-552 limits assumed, form in doubt) above

MEDI9447 (antibody)
OD450 [1]: 1.73 OD and 1.81 OD
OD450 [2]: 0.288 OD and 0.305 OD
EC50 [3]: 0.042 nM
OD450 [4]: 1.09 OD and 1.17 OD
Kd [5]: 0.104 nM
koff [5]: 2.44e-05 s⁻¹
kon [5]: 234000 M⁻¹ s⁻¹
OD450 [6]: 2.22 OD and 2.35 OD
OD450 [7]: 2.43 OD and 2.53 OD
OD450 [8]: 0.547 OD and 0.587 OD
OD450 [9]: 2.46 OD and 2.57 OD

nivolumab (antibody)
OD450 (PD-1-mFc (human) [10]): 2.44 OD
OD450 [11]: 1.39 OD and 1.21 OD
OD450 (PD-1-mFc (human) [12]): 0.521 OD and 0.498 OD
OD450 (PD-1-mFc (human) [13]): 2.2 OD and 2.22 OD
OD450 (PD-1-mFc (human) [14]): 2.52 OD and 2.57 OD
OD450 [15]: 0.075 OD and 0.076 OD
EC50 [16]: 1.7 nM
OD450 [17]: 1.35 OD and 1.28 OD
OD450 [18]: 1.24 OD and 1.15 OD
OD450 (PD-1-mFc (human) [19]): 0.98 OD
OD450 (PD-1-mFc (human) [20]): 1.71 OD
OD450 [21]: 1.01 OD and 0.875 OD
OD450 (PD-1-mFc (human) [22]): 2.39 OD and 2.47 OD
OD450 [23]: 0.107 OD and 0.1 OD
OD450 [24]: 0.057 OD
